Starred links: 1 amine or outer side, 2 acyl side, 3 side chain; linkers in the order of their positions; H or OH if unused. Positions of bridges follow the written chain, without caps; N, C: chain ends. Non-standard residues stand in square brackets, D forms with d. Primed or numbered codes have the meaning given here. PyrS2″ = (S)-3-amino-1-((pent-4-en-1-yloxy)carbonyl)pyrrolidine-3-carboxylic acid (stapling residue), C=CCCCOC(=O)N1CC[C@@](N[*:1])(C(=O)[*:2])C1; B5(5) = 2,2-bis(4-pentenyl)glycine, 2-amino-2-(pent-4-en-1-yl)hept-6-enoic acid (stitching residue), C=CCCCC(CCCC=C)(N[*:1])C(=O)[*:2]; PyrS2 = (S)-3-amino-1-((pent-4-en-1-yloxy)carbonyl)pyrrolidine-3-carboxylic acid, C=CCCCOC(=O)N1CC[C@@](N[*:1])(C(=O)[*:2])C1; B5(27) = 2-amino-2-(pent-4-en-1-yl)hept-6-enoic acid (two alkene side-chain arms), C=CCCCC(CCCC=C)(N[*:1])C(=O)[*:2]; MorphAsn = (S)-2-amino-4-morpholino-4-oxobutanoic acid, O=C(C[C@H](N[*:1])C(=O)[*:2])N1CCOCC1; Bta = N[C@@H](Cc1csc2ccccc12)C(=O)O; αAllylPro = C=CC[C@@]1(C(=O)O)CCCN1; tBuAla = CC(C)(C)C[C@H](N)C(=O)O; 3Thi = N[C@@H](Cc1ccsc1)C(=O)O; Cha = N[C@@H](CC1CCCCC1)C(=O)O; S8 = C=CCCCCCC[C@](C)(N)C(=O)O; PyrS2(4) = not defined here; hSer = N[C@@H](CCO)C(=O)O; Nle = CCCC[C@H](N)C(=O)O
target: T1, B-cat-Halo (beta-catenin HaloTag NanoBRET construct expressed in HEK293 cells) (UniProt P35222 1-781, HaloTag NanoBRET 618 Ligand bound to the HaloTag); assay: cell-based or functional assay
T1 sequence (looked up): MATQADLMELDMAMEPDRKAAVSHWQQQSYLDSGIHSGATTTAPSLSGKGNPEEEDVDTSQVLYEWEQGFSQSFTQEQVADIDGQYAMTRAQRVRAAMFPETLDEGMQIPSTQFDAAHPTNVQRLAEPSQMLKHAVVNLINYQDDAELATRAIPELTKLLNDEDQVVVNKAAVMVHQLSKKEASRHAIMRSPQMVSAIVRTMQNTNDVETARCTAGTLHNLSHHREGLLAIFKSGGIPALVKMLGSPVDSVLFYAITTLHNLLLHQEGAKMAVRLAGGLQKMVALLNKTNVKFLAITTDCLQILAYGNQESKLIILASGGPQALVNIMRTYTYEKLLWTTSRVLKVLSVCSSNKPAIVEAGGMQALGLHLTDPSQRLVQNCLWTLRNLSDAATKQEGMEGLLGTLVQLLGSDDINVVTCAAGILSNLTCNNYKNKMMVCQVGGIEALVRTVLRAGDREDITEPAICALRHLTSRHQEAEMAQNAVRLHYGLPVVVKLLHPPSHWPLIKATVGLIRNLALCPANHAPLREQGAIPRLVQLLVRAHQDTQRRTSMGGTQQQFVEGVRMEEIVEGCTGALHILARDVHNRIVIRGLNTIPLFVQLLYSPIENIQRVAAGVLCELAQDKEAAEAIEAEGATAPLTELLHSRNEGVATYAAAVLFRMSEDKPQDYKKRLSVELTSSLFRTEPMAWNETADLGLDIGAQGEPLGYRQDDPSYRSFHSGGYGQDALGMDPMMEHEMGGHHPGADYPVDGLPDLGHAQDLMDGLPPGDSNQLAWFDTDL

| Binder | NanoBRET Abs IC50 |
| --- | --- |
| Ac-[αAllylPro]D[Nle][B5(5)]DEAAF[hSer][S8]F[Bta]Q-NH2 (staple 1-4, 4-11) [I-1525: Ac-PL3-Asp-nLeu-B5-Asp-Glu-Ala-Ala-Phe-Hse-S8-Phe-BztA-Gln-NH2] | 10.8 µM |
| Ac-[αAllylPro]DF[B5(5)]DDAAFL[PyrS2(4)][3Thi][Bta]Q-NH2 (staple 1-4, 4-11; not fully specified; printed as I-1509: Ac-PL3-Asp-Phe-B5-Asp-Asp-Ala-Ala-Phe-Leu-PyrS2-3Thi-BztA-Gln-NH2; reading uncertain) [I-1509: Ac-PL3-Asp-Phe-B5-Asp-Asp-Ala-Ala-Phe-Leu-PyrS2-3Thi-BztA-Gln-NH2] | 24.5 µM |
| Ac-[αAllylPro]D[Nle][B5(5)]DEAAF[hSer][S8]F[Bta]Q-NH2 (staple 1-4, 4-11; also: staple isomer, earlier eluting HPLC peak) [I-1524: Ac-PL3-Asp-nLeu-B5-Asp-Glu-Ala-Ala-Phe-Hse-S8-Phe-BztA-Gln-NH2] | 8.1 µM |
| Ac-[αAllylPro]DY[B5(5)]DDAAFL[PyrS2″][3Thi][Bta][hSer]-NH2 (staple 1-4, 4-11) [I-1512: Ac-PL3-Asp-Tyr-B5-Asp-Asp-Ala-Ala-Phe-Leu-PyrS2-3Thi-BztA-Hse-NH2] | > 20 µM |
| Ac-[αAllylPro]D[Nle][B5(5)]DEAAFQ[S8]F[Bta]Q-NH2 (staple 1-4, 4-11; also: staple isomer, earlier eluting HPLC peak) [I-1521: Ac-PL3-Asp-nLeu-B5-Asp-Glu-Ala-Ala-Phe-Gln-S8-Phe-BztA-Gln-NH2] | 6 µM |
| Ac-[αAllylPro]DN[B5(5)]DDAAFL[PyrS2″][3Thi][Bta]Q-NH2 (staple 1-4, 4-11) [I-1517: Ac-PL3-Asp-Asn-B5-Asp-Asp-Ala-Ala-Phe-Leu-PyrS2-3Thi-BztA-Gln-NH2] | > 20 µM |
| Ac-[αAllylPro]D[Cha][B5(5)]DDAAFL[PyrS2″][3Thi][Bta]Q-NH2 (staple 1-4, 4-11) [I-1519: Ac-PL3-Asp-Cha-B5-Asp-Asp-Ala-Ala-Phe-Leu-PyrS2-3Thi-BztA-Gln-NH2] | 12.8 µM |
| Ac-[αAllylPro]D[Cha][B5(5)]DDAAFL[PyrS2(4)][3Thi][Bta][hSer]-NH2 (staple 1-4, 4-11; not fully specified; printed as I-1520: Ac-PL3-Asp-Cha-B5-Asp-Asp-Ala-Ala-Phe-Leu-PyrS2-3Thi-BztA-Hse-NH2; reading uncertain) [I-1520: Ac-PL3-Asp-Cha-B5-Asp-Asp-Ala-Ala-Phe-Leu-PyrS2-3Thi-BztA-Hse-NH2] | 17.4 µM |
| Ac-[αAllylPro]D[Nle][B5(5)]DEAAFQ[S8]F[Bta]Q-NH2 (staple 1-4, 4-11) [I-1522: Ac-PL3-Asp-nLeu-B5-Asp-Glu-Ala-Ala-Phe-Gln-S8-Phe-BztA-Gln-NH2] | 5.8 µM |
| Ac-[αAllylPro]DY[B5(27)]DDAAFL[PyrS2][3Thi][Bta]Q-NH2 (staple 1-4, 4-11) [I-1511: Ac-PL3-Asp-Tyr-B5-Asp-Asp-Ala-Ala-Phe-Leu-PyrS2-3Thi-BztA-Gln-NH2] | > 20 µM |
| Ac-[αAllylPro]D[tBuAla][B5(27)]DDA[MorphAsn]FL[PyrS2][3Thi][Bta]Q-NH2 (staple 1-4, 4-11) [I-1507: Ac-PL3-Asp-Npg-B5-Asp-Asp-Ala-MorphAsn-Phe-Leu-PyrS2-3Thi-BztA-Gln-NH2] | > 20 µM |
| Ac-[αAllylPro]DN[B5(5)]DDAAFL[PyrS2″][3Thi][Bta][hSer]-NH2 (staple 1-4, 4-11) [I-1518: Ac-PL3-Asp-Asn-B5-Asp-Asp-Ala-Ala-Phe-Leu-PyrS2-3Thi-BztA-Hse-NH2] | 24.2 µM |
| Ac-[αAllylPro]DF[B5(27)]DDAAFL[PyrS2][3Thi][Bta][hSer]-NH2 (staple 1-4, 4-11) [I-1510: Ac-PL3-Asp-Phe-B5-Asp-Asp-Ala-Ala-Phe-Leu-PyrS2-3Thi-BztA-Hse-NH2] | 31.8 µM |
| Ac-[αAllylPro]D[Nle][B5(5)]DEAAFL[S8]F[Bta]Q-NH2 (staple 1-4, 4-11) [I-1523: Ac-PL3-Asp-nLeu-B5-Asp-Glu-Ala-Ala-Phe-Leu-S8-Phe-BztA-Gln-NH2] | 8 µM |
| Ac-[αAllylPro]DT[B5(5)]DDAAFL[PyrS2″][3Thi][Bta]Q-NH2 (staple 1-4, 4-11) [I-1515: Ac-PL3-Asp-Thr-B5-Asp-Asp-Ala-Ala-Phe-Leu-PyrS2-3Thi-BztA-Gln-NH2] | > 20 µM |
| Ac-[αAllylPro]DT[B5(5)]DDAAFL[PyrS2″][3Thi][Bta][hSer]-NH2 (staple 1-4, 4-11) [I-1516: Ac-PL3-Asp-Thr-B5-Asp-Asp-Ala-Ala-Phe-Leu-PyrS2-3Thi-BztA-Hse-NH2] | > 20 µM |

— US20240116985A1 (published 2024)
